According to paper PMC8885657, “HPV infection alters vaginal microbiome through down-regulating host mucosal innate peptides used by Lactobacilli as amino acid sources” (Nature Communications, 2022):

Legend:
E-cadherin (CDH1) = assay: Reactivation of hypermethylated CDH1 gene (Western blot); format: cell-based, human; settings: 5 µM
Method: Immortalized keratinocytes (1.5 × 10^5 cells per well of a six-well plate) were transfected with ON-TARGETplus SMARTpool siRNAs targeting p65, β-catenin or c-Myc (Dharmacon, Lafayette, CO, USA) using Oligofectamine Transfection Reagent (Invitrogen). Oligos targeting the firefly luciferase gene (siGL2) were used as control. For each experiment, siRNA (40 nM) and 6 µl of Oligofectamine were diluted in 1 ml of Optimem (Invitrogen). The cells were incubated with the mixture for 4 h at 37 °C. Twenty-four hours after transfection, cells were either harvested or stimulated with LPS (2 µg/ml) or TNFα (20 ng/ml) and experiments were performed. For the chemical inhibition of NF-kB or c-Myc, BAY 11-7082 (5 µM, Sigma Aldrich) or 10058-F4 (40 µM, Selleckchem, Houston, TX, USA) was added to cell cultures before RNA expression analyses. […]
After extraction in 1% SDS buffer (total extraction) containing protease and phosphatase inhibitors (Roche) and quantification (BCA protein assay kit; Pierce, Rockford, IL, USA), twenty micrograms of proteins were separated on 10% SDS-PAGE and transferred to PVDF membranes (Roche). […] The protein bands were detected using an enhanced chemiluminescence system (Westar ECL-Sun, Cyanagen, Bologna, Italy) and finally quantified by densitometry using ImageJ software. […]

[1] = system: murine vaginal microbiota; assay: 16S-based metagenomics of cervico-vaginal lavage samples; format: in vivo, mouse; settings: FVB/n mice treated (n=12) or not (n=8), subcutaneous implant 1-2 µg/24h, 12 weeks
Source text: FVB/n mice expressing HPV16 under the control of the keratin 14 promoter (K14-HPV16 transgenic mice) were obtained from the National Cancer Institute Mouse Repository. Given that (pre)cancer development within the lower genital tract has been previously shown to be hormone-dependent in this model[75],[76], 6 to 8-week-old female mice (n = 12 per condition) were subcutaneously implanted with a Belma’s E2 implant (E2-M/90, Belma Technologies, Liege, Belgium), allowing reproducible long-term release of 17β-estradiol (1–2 µg/24 h) for 90 days[77]. A similar procedure was performed with control (FVB/n) mice. […]
Mice were randomly distributed in cages and housed under standard conditions [12 h light/12 h dark cycle, ad libitum access to food and water, constant temperature (19–21 °C) and humidity (40–50%)] in the GIGA-Mouse facility platform (University of Liege) during the entire course of the study. […] Seven µl from each samples were spread on a glass slide, fixed/stained using Diff-Quick reagents (Medion Diagnostics, Düdingen, Switzerland) and the estrous cycle stage was determined using established criteria.
DNA was isolated from cervico-vaginal lavage samples using NucleoSpin Tissue kit (Macherey Nagel, Düren, Germany). […] Of note, 7 random nucleotides were added to the 5′ region of forward primer to increase complexity and, therefore, improve sequence read quality. […]

Gardnerella vaginalis = assay: Antimicrobial assay (surviving colonies, CFU count); format: cell-based; settings: peptide 1–10 µg/ml, 5 × 10^4 CFU/ml, 10 mM sodium phosphate buffer, 6 h, 37 °C; plated on Columbia Blood agar; n = 5
Method: (§1) Bacterial strains Lactobacillus crispatus DSM 20356, Lactobacillus iners CIP 105923 and Garnerella vaginalis CCUG 43336 were kindly provided by the Department of Clinical Microbiology at University Hospital Center of Liege. Lactobacillus jensenii LMG 6414 was obtained from BCCM/LMG Bacteria Collection (University of Gent, Belgium). Log-phase bacteria were grown on Columbia agar with 5% sheep blood (Becton Dickinson, Franklin Lakes, NJ, USA) at 37 °C in a humidified CO2 atmosphere (Lactobacilli) or in anaerobic jars (G. vaginalis). To analyze the antimicrobial effect of innate peptides expressed by vaginal/cervical mucosa, 5 × 10^4 colony-forming unit (CFU)/ml were mixed with different peptides (concentration range: 1–10 µg/ml) in 10 mM sodium phosphate buffer (SPB) (final volume 100 µl) and incubated for 45 min to 9 h at 37 °C. Where indicated, the peptides were incubated with 2 mM dithiothreitol (DTT) (Invitrogen, Carlsbad, CA, USA) for 30 min at 37 °C before adding the bacteria. In indicated experiments, incubation was carried out in potassium phosphate buffer (KPB) (pH: 7.4, 10 mM). The following peptides were tested: HβD1 (PeptaNova, Sandhausen, Germany), HβD2 (PeptaNova), HβD3 (PeptaNova), HβD4 (PeptaNova), HD-5 (PeptaNova), HD-6 (PeptaNova), elafin (PeptaNova), S100A7 (Abnova, Taipei City, Taiwan) and SLPI (R&D Systems, Minneapolis, MI, USA). Bacterial suspensions were then plated on Columbia Blood agar plates for 24–48 h to determine CFU. High-resolution images for each condition were taken. Colony detection and counts were finally performed using ImageJ software (NIH, Bethesda, MD, USA) and verified by manual counting.

[2] = system: Lactobacillus crispatus DSM 20356; assay: as above; format: cell-based; settings: peptide 1–10 µg/ml, 5 × 10^4 CFU/ml, 10 mM sodium phosphate buffer, 6 h, 37 °C; plated on Columbia Blood agar; n = 3
Method: as §1

[3] = system: Lactobacillus iners CIP 105923; assay: as above; format: cell-based; settings: peptide 1–10 µg/ml, 5 × 10^4 CFU/ml, 10 mM sodium phosphate buffer, 6 h, 37 °C; plated on Columbia Blood agar; n = 3
Method: as §1

[4] = system: Lactobacillus jensenii LMG 6414; assay: as above; format: cell-based; settings: peptide 1–10 µg/ml, 5 × 10^4 CFU/ml, 10 mM sodium phosphate buffer, 6 h, 37 °C; plated on Columbia Blood agar; n = 3
Method: as §1

## Nc1ncn([C@H]2C[C@H](O)[C@@H](CO)O2)c(=O)n1 [5-aza-deoxycytidine]
E-cadherin (CDH1)
  CDH1 (E-cadherin) expression, Western blot: reactivation of silenced CDH1 gene

## C[C@]12CC[C@@H]3c4ccc(O)cc4CC[C@H]3[C@@H]1CC[C@@H]2O [17β-estradiol]
[1]
  composition of murine vaginal microbiota (α- and β-diversity, richness, evenness): not altered

B1: HD-5: epithelial member of the defensin family, host defense peptide (PeptaNova) (peptide, UniProt Q01523 20-94, looked up)
Defensin alpha 5: ESLQERADEATTQKQSGEDNQDLAISFAGNGLSALRTSGSQARATCYCRTGRCATRESLSGVCEISGRLYRLCCR
Gardnerella vaginalis
  effect on bacterial growth/survival (percentage of surviving colonies): inhibit the growth
[2]
  effect on bacterial growth/survival (percentage of surviving colonies): inhibit the growth
[3]
  effect on bacterial growth/survival (percentage of surviving colonies): inhibit the growth
[4]
  effect on bacterial growth/survival (percentage of surviving colonies): inhibit the growth
